# Laboratory results as given in US20240336909.
# B1: Cathepsin G (protein)
# chain: IIGGRESRPHSRPYMAYLQIQSPAGQSRCGGFLVREDFVLTAAHCWGSNINVTLGAHNIQRRENTQQHITARRAIRHPQYNQRTIQNDIMLLQLSRRVRRNRNVNPVALPRAQEGLRPGTLCTVAGWGRVSMRRGTDTLREVQLRVQRDRQCLRIFGSYDPRRQICVGDRRERKAAFKGDSGGPLLCNNVAHGIVSYGKSSGVPPEVFTRVSSFLPWIRTTMRS
# B2: Neutrophil Elastase (protein)
# chain: IVGGRRARPHAWPFMVSLQLRGGHFCGATLIAPNFVMSAAHCVANVNVRAVRVVLGAHNLSRREPTRQVFAVQRIFENGYDPVNLLNDIVILQLNGSATINANVQVAQLPAQGRRLGNGVQCLAMGWGLLGRNRGIASVLQELNVTVVTSLCRRSNVCTLVRGRQAGVCFGDSGSPLVCNGLIHGIASFVRGGCASGLYPDAFAPVAQFVNWIDSIIQ
# B3: Matriptase (protein)
# chain: VVGGTDADEGEWPWQVSLHALGQGHICGASLISPNWLVSAAHCYIDDRGFRYSDPTQWTAFLGLHDQSQRSAPGVQERRLKRIISHPFFNDFTFDYDIALLELEKPAEYSSMVRPICLPDASHVFPAGKAIWVTGWGHTQYGGTGALILQKGEIRVINQTTCENLLPQQITPRMMCVGFLSGGVDSCQGDSGGPLSSVEADGRIFQAGVVSWGDGCAQRNKPGVYTRLPLFRDWIKENTGV
# B4: MMP-2 (protein)
# chain: YNFFPRKPKWDKNQITYRIIGYTPDLDPETVDDAFARAFQVWSDVTPLRFSRIHDGEADIMINFGRWEHGDGYPFDGKDGLLAHAFAPGTGVGGDSHFDDDELWTLGEGQVVRVKYGNADGEYCKFPFLFNGKEYNSCTDTGRSDGFLWCSTTYNFEKDGKYGFCPHEALFTMGGNAEGQPCKFPFRFQGTSYDSCTTEGRTDGYRWCGTTEDYDRDKKYGFCPETAMSTVGGNSEGAPCVFPFTFLGNKYESCTSAGRSDGKMWCATTANYDDDRKWGFCPDQGYSLFLVAAHEFGHAMGLEHSQDPGALMAPIYTYTKNFRLSQDDIKGIQELYGASPDIDLGTGPTPTLGPVTPEICKQDIVFDGIAQIRGEIFFFKDRFIWRTVTPRDKPMGPLLVATFWPELPEKIDAVYEAPQEEKAVFFAGNEYWIYSASTLERGYPKPLTSLGLPPDVQRVDAAFNWSKNKKTYIFAGDKFWRYNEVKKKMDPGFPKLIADAWNAIPDNLDAVVDLQGGGHSYFFKGAYYLKLENQSLKSVKFGSIKSDWLGC
# Target: AxCT mask27 EpCAM H90.2 L059 version 1
row,Protein,Percent cleavage
1,B1,6%
2,B2,14%
3,B3,39%
4,B4,55%

# Target: AxCT mask27 EpCAM H90.2 L061 version 1
row,Protein,Percent cleavage
1,B1,0%
2,B2,14%
3,B3,22%
4,B4,74%

# Target: AxCT mask27 EGFR EH104 L057 version 1
row,Protein,Percent cleavage
1,B1,0%
2,B2,28%
3,B3,36%
4,B4,47%

# Target: AxCT mask27 EGFR EH104 L001 version 1
row,Protein,Percent cleavage
1,B1,0%
2,B2,34%
3,B3,37%
4,B4,71%

# Target: AxCT mask27 EpCAM H90.2 L041 version 1
row,Protein,Percent cleavage
1,B1,0%
2,B2,0%
3,B3,80%

# Target: AxCT mask27 EpCAM H90.2 L075 version 1
row,Protein,Percent cleavage
1,B1,8%
2,B2,0%
3,B3,0%
4,B4,0%

# Target: AxCT mask27 EpCAM H90.2 L043 version 1
row,Protein,Percent cleavage
1,B1,0%
2,B2,0%
3,B3,79%
4,B4,39%

# Target: AxCT mask27 EGFR EH104 L062 version 1
row,Protein,Percent cleavage
1,B1,0%
2,B2,8%
3,B3,52%
4,B4,63%

# Target: AxCT mask27 EGFR EH104 L040 version 1
row,Protein,Percent cleavage
1,B1,0%
2,B2,13%
3,B3,67%
4,B4,60%

# Target: AxCT mask27 EGFR EH104 L065 version 1
row,Protein,Percent cleavage
1,B1,0%
2,B2,10%
3,B3,0%
4,B4,71%

# Target: AxCT mask27 EGFR EH104 L058 version 1
row,Protein,Percent cleavage
1,B1,0%
2,B2,9%
3,B3,23%
4,B4,62%

# Target: AxCT mask27 EpCAM H90.2 L064 version 1
row,Protein,Percent cleavage
1,B1,0%
2,B2,32%
3,B3,0%
4,B4,79%

# Target: AxCT mask27 EGFR EH104 L060 version 1
row,Protein,Percent cleavage
1,B1,0%
2,B2,10%
3,B3,62%
4,B4,27%

# Target: AxCT mask27 EGFR EH104 L059 version 1
row,Protein,Percent cleavage
1,B1,8%
2,B2,15%
3,B3,33%
4,B4,39%

# Target: AxCT mask27 EpCAM H90 L001 version 1
row,Protein,Percent cleavage
1,B1,0%
2,B2,44%
3,B3,42%
4,B4,104%

# Target: AxCT mask27 EGFR EH104 L063 version 1
row,Protein,Percent cleavage
1,B1,0%
2,B2,9%
3,B3,49%
4,B4,31%

# Target: AxCT mask27 EGFR EH104 L072 version 1
row,Protein,Percent cleavage
1,B1,0%
2,B2,10%
3,B3,0%
4,B4,73%

# Target: AxCT mask27 EGFR EH104 L041 version 1
row,Protein,Percent cleavage
1,B1,0%
2,B2,0%
3,B3,62%
4,B4,51%

# Target: AxCT mask27 EGFR EH104 L073 version 1
row,Protein,Percent cleavage
1,B1,0%
2,B2,9%
3,B3,0%

# Target: AxCT mask27 EGFR EH104 L070 version 1
row,Protein,Percent cleavage
1,B1,0%
2,B2,11%
3,B3,13%
4,B4,22%

# Target: AxCT mask27 EpCAM H90.2 L076 version 1
row,Protein,Percent cleavage
1,B1,0%
2,B2,6%
3,B3,0%
4,B4,35%

# Target: AxCT mask27 EGFR EH104 L056 version 1
row,Protein,Percent cleavage
1,B1,0%
2,B2,14%
3,B3,39%
4,B4,51%

# Target: AxCT mask27 EGFR EH104 L054 version 1
row,Protein,Percent cleavage
1,B1,0%
2,B2,23%
3,B3,37%
4,B4,59%

# Target: AxCT mask27 EpCAM H90.2 NCLV
row,Protein,Percent cleavage
1,B1,0%
2,B2,0%
3,B3,0%
4,B4,0%

# Target: AxCT mask27 EGFR EH104 L061 version 1
row,Protein,Percent cleavage
1,B1,0%
2,B2,19%
3,B3,20%
4,B4,43%

# Target: AxCT mask27 EGFR EH104 L067 version 1
row,Protein,Percent cleavage
1,B1,0%
2,B2,32%
3,B3,0%
4,B4,34%

# Target: AxCT mask27 EGFR EH104 L068 version 1
row,Protein,Percent cleavage
1,B1,0%
2,B2,19%
3,B3,0%
4,B4,48%

# Target: AxCT mask27 EGFR EH104 L069 version 1
row,Protein,Percent cleavage
1,B1,12%
2,B2,22%
3,B3,0%
4,B4,29%

# Target: AxCT mask27 EGFR EH104 L071 version 1
row,Protein,Percent cleavage
1,B1,0%
2,B2,26%
3,B3,0%
4,B4,39%

# Target: AxCT mask27 EpCAM H90.2 L060 version 1
row,Protein,Percent cleavage
1,B1,0%
2,B2,7%
3,B3,92%
4,B4,40%

# Target: AxCT mask27 EpCAM H90.2 L063 version 1
row,Protein,Percent cleavage
1,B1,0%
2,B2,0%
3,B3,68%
4,B4,36%

# Target: AxCT mask27 EGFR EH104 L066 version 1
row,Protein,Percent cleavage
1,B1,0%
2,B2,9%
3,B3,0%
4,B4,25%

# Target: AxCT mask27 EpCAM H90.2 L073 version 1
row,Protein,Percent cleavage
1,B1,0%
2,B2,10%
3,B3,0%
4,B4,17%

# Target: AxCT mask27 EGFR EH104 L043 version 1
row,Protein,Percent cleavage
1,B1,0%
2,B2,7%
3,B3,59%
4,B4,27%

# Target: AxCT mask27 EpCAM H90.2 L040 version 1
row,Protein,Percent cleavage
1,B1,0%
2,B2,9%
3,B3,93%
4,B4,90%

# Target: AxCT mask27 EGFR EH104 L055 version 1
row,Protein,Percent cleavage
1,B1,0%
2,B2,9%
3,B3,53%
4,B4,35%

# Target: AxCT mask27 EGFR EH104 L064 version 1
row,Protein,Percent cleavage
1,B1,0%
2,B2,30%
3,B3,0%
4,B4,63%
